Assay results as given in patent publication US20080311122A1, “Antagonists of Hmgb1 and/or Rage and Methods of Use Thereof” (Medimmune, LLC, priority 2005, published 2008).

T1: recombinant HMG1 purified from E. coli as a calmodulin binding protein (CBP) fusion protein (human)
T1 chain: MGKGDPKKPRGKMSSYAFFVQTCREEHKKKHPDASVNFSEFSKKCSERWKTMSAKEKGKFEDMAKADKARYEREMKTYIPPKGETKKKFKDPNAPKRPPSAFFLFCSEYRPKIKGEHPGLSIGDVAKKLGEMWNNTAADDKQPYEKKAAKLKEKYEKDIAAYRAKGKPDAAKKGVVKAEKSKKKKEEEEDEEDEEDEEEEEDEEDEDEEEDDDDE


Target: T1, recombinant HMG1 purified from E. coli …
Assay: BIAcore, mAb immobilized, HMG1 injected, steady-state model
Settings: remark: other sources report otherwise

| Kd [nM] | Binder |
| --- | --- |
| 114 | anti-HMG1 antibody G20 (antibody, V domains shown) VH: EVQLLESGGGLVQPGGSLRLSCAASGFTFSWYDMFWVRQAPGKGLEWVSWISPSGGYTKYADSVKGRFTISRDNSKNTLYLQMNSLRAEDTAMYYCARSGLDYYDSSGYLDAFDIWGQGTMVTVSS VL: AQDIQMTQSPSSVSASVGDRVTITCRASQDVSIWLAWYQQKPGKAPKLLIFGASRLQSGVPSRFSGSRSGADFTLTIDSVQPEDFASYYCQQADSFPLTFGGGTKVEIK |
| 101 | anti-HMG1 antibody G2 (antibody, V domains shown) VH: EVQLLESGGGLVQPGGSLRLSCAASGFTFSWYKMQWVRQAPGKGLEWVSGISPSGGSTAYADSVKGRFTISRDNSKNTLYLQMNSLRAEDTAVYYCAKMGLFNTGNSYVDYWGQGTLVTVSS VL: AQSELTQPPSVSEAPGQRVTISCSGSTSNIGNNAVIWYQQLPGKAPKLLIYYDDLLPSGVSDRFSGSKSGTSGSLAISGLQSEDEADYYCASWDDNLNGPLFGGGTKLTVL |
| 331 | anti-HMG1 antibody S17 (antibody, V domains shown) VH: EVQLLESGGGLVQPGGSLRLSCAASGFTFSYYDMHWVRQAPGKGLEWVSRISPSGGYTWYADSVKGRFTISRDNSKNTLYLQMNSLRAEDTAVYYCTRGRYTSGWHEYFDPWGQGTLVTVSS VL: AQDIQMTQSPSSLSASVGDRVTITCRASQSIGTYLNWYQQKPGTAPKVLIYAASSLQSGVPSRFSGSGSGTDFTLTISSLQPEDFSTYYCQQSYNTPRTFGQGTKLEIK |
